Seven substances from doi:10.1101/2024.10.10.617615 can be followed below.

In this test the target is SpyCatcher003. The test can be described thus: gel shift assay of isopeptide ligation. On the technique in general: Mobility shift assays separate free from complexed probe on a gel.

Take “SpyTag003 Ala^S11 thioamide variant (peptide)”: the fold change of ligation rate against Oxo (slower) was found to be 38 fold.

With “SpyTag003 Met^S8 thioamide variant (peptide)”, the fold change of ligation rate against Oxo (slower) is greater than 2000 fold.

For “SpyTag003 Val^S3-Pro^S4 dual thioamide peptide”, the fold change of ligation rate against Oxo (slower) was 1.2 fold and the fold change of ligation rate against Val^S3 (slower) was determined as 2 fold.

On to “SpyTag003 Val^S3 thioamide variant (peptide)”, for which the fold change of ligation rate against Oxo (faster) worked out at 1.8 fold.

Regarding “SpyTag003 Val^S7 thioamide variant (peptide)”, the fold change of ligation rate against Oxo (faster) stood at 1.4 fold.

For the substance “SpyTag003 Ile^S6 thioamide variant (peptide)”, the fold change of ligation rate against Oxo (slower) came out at 5.4 fold.

“SpyTag003 Val^S9 thioamide variant (peptide)”: the fold change of ligation rate against Oxo (slower) was determined as 1.6 fold.
